From patent publication US20170362317A1 (FOUNTAIN BIOPHARMA, published 2017)
Numbering of substitutions follows the chain as printed.

Columns and labels:
[1] = biological target: T1, recombinant human interleukin-6 (IL6) (human, UniProt P05231 30-212); experiment: cell-based or functional assay
[2] = biological target: T1, recombinant human interleukin-6 (IL6); experiment: SPR (BIAcore T200), IgG captured by anti-human IgG, IL6 injected at 0.4-25.6 nM
Protocol: IgG binding affinity was measured by using human antibody capture kit (GE healthcare) in BIAcore T200 system (GE healthcare). The mouse anti-human IgG was immobilized on a CMS sensor chip via amine coupling. Approximately 700 RU of purified anti-IL6 IgG in HBS-EP+ buffer were captured onto the immobilized surface. The recombinant human IL6 (R&D Systems) at concentrations ranging from 25.6 nM to 0.4 nM in HBS-EP+ buffer was injected for 2 minutes using a flow rate of 30 μl/min. Dissociation of bound antigen in HBS⁻EP⁺ buffer flow was followed for 7 minutes. The surfaces IgG were regenerated after each cycle using regeneration solution (3M MgCl₂). The dissociation constant (KD) was calculated as kd/ka.

[3] = biological target: T1, recombinant human interleukin-6 (IL6); experiment: ELISA, plate coated with recombinant human IL6 at 2 µg/ml, FB704 in four-fold serial dilutions from 2 µg/ml, HRP-labeled goat anti-human IgG, A450 [Cont'd) B]
Protocol: (§1) Plates were coated with recombinant human IL3, IL4, IL5, IL6, IL11, IL17A, CNTF, OSM, IGF-1 (R&D Systems), IL2, FGF (Prospec), VEGF, TNF-α, EGF (Peprotech) at 2 μg/ml in 0.1M NaHCO₃ buffer at 4° C. overnight. After being washed by PBS, the wells were blocked with 1% (w/v) BSA in PBS at RT for 1 h. Purified anti-IL6 antibodies in four-fold serial dilutions at a starting concentration of 2 μg/ml were placed into the wells and incubated at RT for 1 h. The plate was washed in PBS containing 0.1% (w/v) Tween 20 and then probed with HRP-labeled goat anti-human IgG (KPL) diluted 1:10,000 in 1% BSA-PBS for 40 min at RT. The plate was again washed and a TMB substrate solution was added to develop color. Stop solution (1M H₂SO₄) was then added and the absorption at 450 nm quantitated using VERSA max (Molecular Devices).
(§2) An ELISA assay as described herein was performed to confirm the binding specificity of high-affinity anti-IL6 antibodies described herein. Briefly, plates were coated with different cytokines as indicated in FIG. 3A (IL6 family cytokines) and FIG. 3B (non-IL6 family cytokines) and the binding activities of the FB704 antibody clone (i.e. Ag1-4-6) to those cytokines were examined.

recombinant human TNF-α = recombinant human TNF-α (human, UniProt P01375 77-233); experiment: ELISA, plate coated with the cytokine at 2 µg/ml, FB704 in four-fold serial dilutions, HRP-labeled goat anti-human IgG, A450 [Cont'd) B]
recombinant human TNF-α, sequence (P01375 77-233 limits assumed): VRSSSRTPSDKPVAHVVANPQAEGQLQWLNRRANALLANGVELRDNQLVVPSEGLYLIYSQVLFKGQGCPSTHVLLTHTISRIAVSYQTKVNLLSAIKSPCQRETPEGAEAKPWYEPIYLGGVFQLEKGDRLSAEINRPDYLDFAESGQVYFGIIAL
Protocol: as §1, §2

recombinant human IGF-1 = recombinant human IGF-1 (human, UniProt P05019 49-118); experiment: as above
recombinant human IGF-1, sequence (P05019 49-118 limits assumed): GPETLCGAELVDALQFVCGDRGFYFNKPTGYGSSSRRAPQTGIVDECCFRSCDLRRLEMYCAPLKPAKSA
Protocol: as §1, §2

recombinant human EGF = recombinant human EGF (human, UniProt P01133 971-1023); experiment: as above
recombinant human EGF, sequence (P01133 971-1023 limits assumed): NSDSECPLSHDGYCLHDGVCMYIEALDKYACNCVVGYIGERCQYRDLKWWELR
Protocol: as §1, §2

recombinant human VEGF = recombinant human VEGF (human, UniProt P15692-4 27-191, limits assumed); experiment: as above
recombinant human VEGF, sequence (P15692 other isoform, or with tags, fused parts or gaps limits assumed): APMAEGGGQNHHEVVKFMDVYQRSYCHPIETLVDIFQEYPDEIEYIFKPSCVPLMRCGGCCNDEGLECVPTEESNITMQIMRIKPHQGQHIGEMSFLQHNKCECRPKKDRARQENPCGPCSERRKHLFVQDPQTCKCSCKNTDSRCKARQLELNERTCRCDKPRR
Protocol: as §1, §2

[4] = biological target: T1, recombinant human interleukin-6 (IL6); experiment: cell-based or functional assay; remark: listed apart in the source
[5] = biological target: T1, recombinant human interleukin-6 (IL6); experiment: ELISA, plate coated with recombinant human IL6 at 2 µg/ml, FB704 in four-fold serial dilutions from 2 µg/ml, HRP-labeled goat anti-human IgG, A450
Protocol: as §1, §2

recombinant human IL17A = biological target: T2, recombinant human IL17A (human, UniProt Q16552 20-155, limits assumed); experiment: ELISA, plate coated with the cytokine at 2 µg/ml, FB704 in four-fold serial dilutions, HRP-labeled goat anti-human IgG, A450
T2 sequence (looked up): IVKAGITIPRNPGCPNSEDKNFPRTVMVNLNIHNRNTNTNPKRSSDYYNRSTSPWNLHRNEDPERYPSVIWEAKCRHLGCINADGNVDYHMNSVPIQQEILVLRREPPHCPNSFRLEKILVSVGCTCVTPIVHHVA
Protocol: as §1, §2

recombinant human IL11 = biological target: T3, recombinant human IL11 (human, UniProt P20809 22-199); experiment: as above
T3 sequence (looked up): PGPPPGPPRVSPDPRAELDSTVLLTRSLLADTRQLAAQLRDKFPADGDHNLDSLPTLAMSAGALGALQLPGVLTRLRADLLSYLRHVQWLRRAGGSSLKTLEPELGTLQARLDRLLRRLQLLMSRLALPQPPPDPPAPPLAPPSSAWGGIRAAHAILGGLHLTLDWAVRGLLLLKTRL
Protocol: as §1, §2

recombinant human IL5 = biological target: T4, recombinant human IL5 (human, UniProt P05113 20-134); experiment: as above
T4 sequence (looked up): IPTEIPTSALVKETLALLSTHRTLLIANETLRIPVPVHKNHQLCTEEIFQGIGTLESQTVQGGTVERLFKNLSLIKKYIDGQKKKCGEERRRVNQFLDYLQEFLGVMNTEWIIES
Protocol: as §1, §2

recombinant human IL3 = biological target: T5, recombinant human IL3 (human, UniProt P08700 20-152); experiment: as above
T5 sequence (looked up): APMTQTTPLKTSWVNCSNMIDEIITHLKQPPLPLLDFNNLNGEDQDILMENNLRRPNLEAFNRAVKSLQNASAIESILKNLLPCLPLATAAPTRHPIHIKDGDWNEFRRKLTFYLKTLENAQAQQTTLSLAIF
Protocol: as §1, §2

recombinant human CNTF = biological target: T6, recombinant human CNTF (human, UniProt P26441 2-200); experiment: as above
T6 sequence (looked up): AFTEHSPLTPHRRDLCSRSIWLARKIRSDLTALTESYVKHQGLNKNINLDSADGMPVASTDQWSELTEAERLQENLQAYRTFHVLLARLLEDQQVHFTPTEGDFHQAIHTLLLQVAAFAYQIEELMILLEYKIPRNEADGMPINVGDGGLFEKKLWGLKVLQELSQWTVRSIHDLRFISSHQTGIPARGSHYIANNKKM
Protocol: as §1, §2

recombinant human OSM = biological target: T7, recombinant human OSM (human, UniProt P13725 26-221, limits assumed); experiment: as above
T7 sequence (looked up): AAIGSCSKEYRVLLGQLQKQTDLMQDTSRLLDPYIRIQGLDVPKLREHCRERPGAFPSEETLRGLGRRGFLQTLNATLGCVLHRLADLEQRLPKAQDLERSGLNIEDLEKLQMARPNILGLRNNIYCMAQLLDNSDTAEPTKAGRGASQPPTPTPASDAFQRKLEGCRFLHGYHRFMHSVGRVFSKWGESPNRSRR
Protocol: as §1, §2

recombinant human IL4 = biological target: T8, recombinant human IL4 (human, UniProt P05112 25-153); experiment: as above
T8 sequence (looked up): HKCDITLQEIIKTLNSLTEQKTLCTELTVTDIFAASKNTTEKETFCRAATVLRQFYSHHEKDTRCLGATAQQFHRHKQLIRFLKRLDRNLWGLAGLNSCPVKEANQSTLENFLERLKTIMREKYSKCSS
Protocol: as §1, §2

recombinant human IL2 = recombinant human IL2 (human, UniProt P60568 21-153); experiment: as above
recombinant human IL2, sequence (P60568 21-153 limits assumed): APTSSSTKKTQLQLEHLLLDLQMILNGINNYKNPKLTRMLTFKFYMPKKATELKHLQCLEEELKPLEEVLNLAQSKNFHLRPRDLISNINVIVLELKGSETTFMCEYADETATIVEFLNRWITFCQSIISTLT
Protocol: as §1, §2

B1: Ag1-4-6 (fully human anti-IL6 IgG1 antibody) (antibody, V domains shown)
VH: EVQLVESGPALVKPTQTLTLTCTFSGFSLSTGGMSVSWIRQPPGKALEWLARIDWDDDKFYTPSLKTRLTISRDTSKNQVVLIMTNMDPVDTATYYCARMHIDDSNGYYSDAFHIWGQGTMVTVSS
VL: EIVLTQSPATLSVSPGERVTLSCRDSQSVSSTSLAWYQQKSGQAPRLLIYDTSNRATGIPARFSGGGSGTDFTLTISSLEPEDFAVYYCSFVSRPYPRFTFGQGTKVEIK
notes: also called FB704
inhibition percentage of control of STAT3 phosphorylation in U266 cells, antibody at 0.05 µg/ml [1]: 0% | inhibition percentage of control of STAT3 phosphorylation in U266 cells, antibody at 0.5 µg/ml [1]: 60% | Kd [2]: 0.75 nM | koff [2]: 0.00121 s⁻¹ | kon [2]: 1.61e+06 M⁻¹ s⁻¹ | EC50 (read off the curve) [3]: ~0.01 µg/mL | binding result (recombinant human TNF-α): no binding (tested: 2 µg/ml) | binding result (recombinant human IGF-1): no binding (tested: 2 µg/ml) | binding result (recombinant human EGF): no binding (tested: 2 µg/ml) | binding result (recombinant human VEGF): no binding (tested: 2 µg/ml) | IC50 of inhibition of IL6-dependent B9 cell proliferation (WST-1, 72 h) [4]: 0.0468 µg/mL | EC50 (read off the curve) [5]: ~0.01 µg/mL | binding result (recombinant human IL17A): no binding (tested: 2 µg/ml) | binding result (recombinant human IL11): no binding (tested: 2 µg/ml) | binding result (recombinant human IL5): no binding (tested: 2 µg/ml) | binding result (recombinant human IL3): no binding (tested: 2 µg/ml) | binding result (recombinant human CNTF): no binding (tested: 2 µg/ml) | binding result (recombinant human OSM): no binding (tested: 2 µg/ml) | binding result (recombinant human IL4): no binding (tested: 2 µg/ml) | binding result (recombinant human IL2): no binding (tested: 2 µg/ml)

B2: 1-4-62 (fully human anti-IL6 IgG1 antibody) (antibody, V domains shown)
VH: B1 VH
VL: B1 VL with S90L, F91V, V92R, S93N, R94N, P95W, Y96P
notes: also called parent clone
inhibition percentage of control of STAT3 phosphorylation in U266 cells, antibody at 0.05 µg/ml [1]: 0% | inhibition percentage of control of STAT3 phosphorylation in U266 cells, antibody at 0.5 µg/ml [1]: 8% | Kd [2]: 3.85 nM | koff [2]: 0.00166 s⁻¹ | kon [2]: 438000 M⁻¹ s⁻¹ | IC50 of inhibition of IL6-dependent B9 cell proliferation (WST-1, 72 h) [4]: 0.618 µg/mL

B3: HAg1T-3-10 (fully human anti-IL6 IgG1 antibody) (antibody, V domains shown)
VH: B1 VH with Y109F
VL: B1 VL
notes: also called HAgT1-3-10
inhibition percentage of control of STAT3 phosphorylation in U266 cells, antibody at 0.05 µg/ml [1]: 49% | inhibition percentage of control of STAT3 phosphorylation in U266 cells, antibody at 0.5 µg/ml [1]: 93% | Kd [2]: 0.27 nM | koff [2]: 0.0006 s⁻¹ | kon [2]: 2.24e+06 M⁻¹ s⁻¹ | IC50 of inhibition of IL6-dependent B9 cell proliferation (WST-1, 72 h) [4]: 0.00456 µg/mL
